This note sets out measurements from the DeepSol protein solubility set.

The data set in a line: soluble on expression in E. coli; label from the status in PepcDB or PDB records.
With “MSLSETSEHPVDGDELLVRTVLSNQALKRIFTHRTDSMTECYQVEKTFLQSEQSLLIGHQLHPTPKSRQGIDEDEELLFTPERKGSFQLHYFRAACELVDEKSALADSASELIKHDLLHDPNVQDSFKASYCQADDYVLLPVHPLQARKLLGKKEIADLIQAGKLSYLGPQGRAFYPTSSLRTVYHPEAEYMYKFSIPVKITNSLRVNKRKELARGVEVSELLKNGLYDQLKAEHPAFNIVQDPAYITLSLDSEESGLETVIRENPFRQGGEERTTLLAALCQDSIQGNSHLTNLMVELAKQKKISVTEASKWWFSRYLNVSLRPLYWLYATHGIALEAHQQNSIIKLDAEGLPSLFYYRDNQGYYFMQSKAETLKQFVPTLNEQSDTICSDAVAEERFRYYVFFNHLFGLVNAFGTNRLIDEEQLLHILREELTLLRQQFGDPTNLVNSLLHEEMLPCKANLLTRIHDMDELEGSLATQSVYVPVPNPLVVMAGELHEGHHHHHH”, the “soluble on expression in E. coli” value was “soluble”.

In the case of “MDRLESVLKEERVFYPSEEFRKQAHIKSEEEYQRLYEESVRDPEGFWGRVASELHWFEPWRKVLEGDLPHPKWFVGGKTNLSYNALDRHVKTWRRNKAAIVWEGEPGEERVLTYHDLWREVQRFANVLKRLGVKKGDRVTIYLPMIPEAAIAMLACTRIGAVHSVVFGGFSAGALADRIKDAEAKVLITADGGFRRGGIVPLKQNADEALKDATSVEHVVVVRRTGEEVPWTPGRDHWWHELMEAAPDRCDPEPMEAEEPLFILYTSGSTGKPKGVLHTTGGYMTYVYYTTKLVFDLKDEDVYWCTADVGWITGHSYVVYGPLLNGATTVMYEGAPNWPEPDRFWRIVDKYGVTVFYTAPTAIRSFMKWGEGWPGKHRLDSLRLLGTVGEPINPEAWLWYYHVIGKGRCPIVDTWWQTETGGIMITTLPGAHAMKPGHAGKPFFGVVPEILDGEHRPVENPDEGGHLCITRPWPSMLRTVWGDPERFLQQYFSQHPGVYFSGDGAKRDKDGYYMILGRVDDVLNVAGHRLGTMEIESALVAHPAVAEAAVVGRPDPVKGEAIVAFVTLKEGHTPSDALKEELRAHVAKVIGPIARPDEIRFTDALPKTRSGKIMRRLLRQIAAGEKEIKGDTSTLEDRSVVERLKEGA”, the “soluble on expression in E. coli” value was “soluble”.

For the sequence “MTDKQYSLDDIRLRLNELDDQLLNLLSERRKMSIEVAKSKVETAKPVRDPAREQQLLVKLINAGKEKYQLDPQYITKIFHTIIEDSVLLQQSYLQNLANPQSRKPLARVAFLGAKGSYSHLATREYFSRKNTELIELNCDHFKEVARTVESGHADYGVLPIENTSSGSINEVYDLLQHTTLYIVGELTQPIEHCLVATQEIRLEDLKVLYSHPQPHQQCSEFLSRLKGVKLESCASTADAMKKVQELNRADVAAIGNSASGKLYGLQPIQGNIANQTENHTRFIVVARKPVDVSPQIPAKTTLIMSTSQEAGSLVSTLLVLQRYGINMTKLESRPIMGNPWEEMFYVDLEAHIDSDEMQQALAELTQLTRHLKVLGCYPSENVKPTQVKFI”, the “soluble on expression in E. coli” value is given as “not soluble”.

In the case of “MLRTQAARLICNSRVITAKRTFALATRAAAYSRPAARFVKPMITTRGLKQINFGGTVETVYERADWPREKLLDYFKNDTFALIGYGSQGYGQGLNLRDNGLNVIIGVRKDGASWKAAIEDGWVPGKNLFTVEDAIKRGSYVMNLLSDAAQSETWPAIKPLLTKGKTLYFSHGFSPVFKDLTHVEPPKDLDVILVAPKGSGRTVRSLFKEGRGINSSYAVWNDVTGKAHEKAQALAVAIGSGYVYQTTFEREVNSDLYGERGCLMGGIHGMFLAQYDVLRENGHSPSEAFNETVEEATQSLYPLIGKYGMDYMYDACSTTARRGALDWYPIFKNALKPVFQDLYESTKNGTETKRSLEFNSQPDYREKLEKELDTIRNMEIWKVGKEVRKLRPENQ”, the “soluble on expression in E. coli” value is “not soluble”.

Take “MHIGQFTRQYPAETAFKVQSNPWKNSPEPFLPMSTQQPKSWADVGKVAGPPRNYHHPYEVKPFEAIDEKNDVFSTMGHWNSEQKQSRQQHQQYQQNQYQARQHQYYQNPPPFYQPEQPVHYQSAQQDVFDNIGEWDNSTPIPSQISPLQLDLTLTTPLPTFQPYPSTRSYSLESPTTSVTSNEEKNSWKTIELILNQKSSRSPSITERLSPVDFGPWTSNL”: the “soluble on expression in E. coli” value is “not soluble”.

Consider “MTIAKDYRTIYRNQIKKQIRLNQEHLQSLTHLGSQINFEVDPPKLPDPDPARKVFFFDIDNTLYRKSTKVQLLMQQSLSNFFKYELGFDDDEAERLIESYYQEYGLSVKGLIKNKQIDDVLQYNTFIDDSLPLQDYLKPDWKLRELLINLKKKKLGKFDKLWLFTNSYKNHAIRCVKILGIADLFDGITYCHYDRPIEEEFICKPDPKFFETAKLQSGLSSFANAWFIDDNESNVRSALSMGMGHVIHLIEDYQYESENIVTKDHKNKQQFSILKDILEIPLIMDVEVYRPSSIAIKEMEELEEEGEAVNWSNQQINVQSS”, for which the “soluble on expression in E. coli” value was “soluble”.

Turning to “MAHHHHHHMVSMIVAGATGAIGRTVVQYAIQQPSIDRVVALTRFRNTAVSNYENLFGIIVAGEAGNTDSRGDGANSKRKKGSGSPAGTVTATPAEAAKIRPITMDWEEFTQLWVAKRSSTSAAASGADNCAAGAAATAITDPTERYRGIFGGHTYAAMCLGTTRKDAGSAKSFTRCDYDYVMAFTEAVLAYSAPAGLSPAKAFVHHIGDGGASKQVHVQEGMGKEVDVLAAMNANAAQSSGTLRVFCQVSSSNASSSSWFLYMQTKGIADESTVERVHRHNKCATAAAALSPVNLLLLQPGLLERHGKTRATEKFAKLIMSSIPVETCGAAIVSACKSLPIQHSVQRAETTSAAEQAKHDEVEGAQVEKENNTVAAGVRKTPLGKPYVATKALCKAGMPPNEPLPYIYAANNAVITDLASRLTA”, the “soluble on expression in E. coli” value was “not soluble”.

With “MSLIDRYILAIESSCDETSVAILKNEDQLLSNIIASQVESHKRFGGVVPEVASRHHVEVITLCIQDALQEAGITAGDLSAVAVTYGPGLVGALLVGMAAAKAFAWANHLPLIPVNHMAGHLMAAQSIADLQYPLLALLVSGGHTELVYVAAPGDYRIVGETRDDAVGEAYDKVGRVMGLTYPAGKEIDQLAHQGQDIYDFPRAMIKEDNLEFSFSGLKSAFINLHHNARQKGEQLRLEDLCASFQAAVLDILMVKTKKALAAYPVKTLVIAGGVAANQGLRERLKEDIKDINVVIPPLRLCGDNAGMIAYAAAVEYEKGHFAELDLNAKPSLAFEGLEEGHHHHHH”, the “soluble on expression in E. coli” value was “soluble”.

For “MADKREPAPGWPILKGEYEVGDVKNSVLVITCGSHLPGKPILDAGAACTGSCKTENLGIEKVVAHIISNPNIRYLLVTGSEVKGHITGQSMMSLHANGVKENRIAGALGAIPYVENLNAAAVARFQEQVQVVNLLDTEDMGAITSKVRELASKDPGAFDADPLVVEISEEGEEEEEGGVVRPVSGEIAVLRSRLKAIEARMMDI”, the “soluble on expression in E. coli” value is “not soluble”.

In the case of “MGSDKIHHHHHHMQREKVDVLVIGAGPAGTVAASLVNKSGFKVKIVEKQKFPRFVIGESLLPRCMEHLDEAGFLDAVKAQGFQQKFGAKFVRGKEIADFNFSDQFSNGWNWTWQVPRGNFDKTLADEAARQGVDVEYEVGVTDIKFFGTDSVTTIEDINGNKREIEARFIIDASGYGRVIPRMFGLDKPSGFESRRTLFTHIKDVKRPVAAEMEGNRITAVVHKPKVWIWVIPFSNGNTSVGFVGEPSYFYYYTGTPEERMRAMIANEGHIAERFKSEEFLFEPRTIEGYAISASKLYGDGFVLTGNATEFLDPIFSSGATFAMESGSKGGKLAVQFLKGEEVNWEKDFVEHMMQGIDTFRSFVTGWYDGTLHAVFFAKNPDPDHKRMICSVLAGYVWDKNNPFVKKHNTILKTLAKVIQMGEEA”, the “soluble on expression in E. coli” value is reported as “not soluble”.

As for “MAKKVAAQIKLQLPAGKATPAPPVGPALGQHGVNIMEFCKRFNAETADKAGMILPVVITVYEDKSFTFIIKTPPASFLLKKAAGIEKGSSEPKRKIVGKVTRKQIEEIAKTKMPDLNANSLEAAMKIIEGTAKSMGIEVVD”, the “soluble on expression in E. coli” value is “soluble”.

For the sequence “HDAIFILDKQGRLTWINQSYSALSGNTLEDIEGKDLPSILQLDKIKHANIIILLQSLETGTSISFELTNHHKDGTLFWIDVSITPILEPN”, the “soluble on expression in E. coli” value is on record as “not soluble”.

Regarding “MTKTRRRGAELENAIYQAARDILNQDGLEQLTFANVAEQAGTSKPVIYRRWRSPLELAIAAIQDQIITENHGQLDEVSLTGQTLSEDLFQVLKRFTVSINTFNQALVITWFHHLDQQANPEVKDLLNAVKKIDAHAIERVCQRAQQRGELRTGTLSCDLQLMPFDWLRYRAFANEPITDATLHLLVDDLLVPAYQHALG”, the “soluble on expression in E. coli” value is listed as “not soluble”.

Take “MSDESEALLRVDHVKYRKAGDGKSPIGRLALFTDFIEWRDNASPEVFTCKFIRINGQRVSPPHKSKVQLQLILKNEDQATFVFLNPSASKEDLVKERDAVKEALQSALVKHRHRVNELAKSVESQSKQVELQAKQKILQEDRNLEKLYQNLVATKLITPDDFWSDYYQKEGVSEDKIGINGAFLANIVQQEGTNGVRLNLNPEIIQAIYSTYPAGQYWQNRENKKKCKEILKFTIQCEYLTRKISRSENYIQKKNLELVPHEMSEENFWKKFFQSHYFHREREVLPNPKDPFAECVRDDEEEMTKMTAEKIQRKRFDLEHIDDNGLRDFIHKSESQQKSAKTTLIKRCNYLSEKILATSWRSGEAAPTTSAAANQKKGFGVLDRLVAETETRLESEDLATKEAEDEVQIVRISSSAKASQAKYSKPDMTRYKALVTDYFQNSSVEDILHRNEMLLDQQEMETWEMEEAMETDNNEVPPPENWCQSAGDLAKVRDVHSAVREICRQFWKSFPPIDKASEEKLNRMAGTLSKYRDDIRNSDISKENLTHCIQMIDLAVDKFEAYEMKKMK”: the “soluble on expression in E. coli” value is “not soluble”.

Consider “MALLCYNRGCGQRFDPETNSDDACTYHPGVPVFHDALKGWSCCKRRTTDFSDFLSIVGCTKGRHNSEKPPEPVKPEVKTTEKKELCELKPKFQEHIIQAPKPVEAIKRPSPDEPMTNLELKISASLKQALDKLKLSSGNEENKKEEDNDEIKIGTSCKNGGCSKTYQGLESLEEVCVYHSGVPIFHEGMKYWSCCRRKTSDFNTFLAQEGCTKGKHMWTKKDAGKKVVPCRHDLHQTGGEVTISVYAKNSLPELSRVEANSTLLNVIIVFEGEKEFDQNVKLWGVIDVKRSYVTMTATKIEITMRKAEPMQWASLELPAAKKQEKQKDDTTD”, for which the “soluble on expression in E. coli” value is recorded as “soluble”.

For “AHHHHHHGSKEEEIHVDPQIVKNITEILKNIKKMKVKQDKRVKWRRENDGRIITFNPITGKICVMNPTLAEIYVMTKNPKGCTFETLIRTLKQRFPSIDEKQLESDILRAMTWLFINGFVYLEDTSKKSKKINIVDVIMEISNQKRGPRQ”, the “soluble on expression in E. coli” value was “not soluble”.

On to “MGHHHHHHSHMAEAKPDVWKSYNVGTVLFEDKASETKGSDIYHRIIPDAESYIKEQARTVLATLYNSPEDSITPVNKIHYTLEDIEGISAKGGGNGDVTIFYSTRHIEKSFAENDTAKLFFETRGVLLHELTHAYQLEPQGIGSYGTNRVFWAFIEGMADAVRVANGGFDGPNARPKGGNYMDGYRTAGYFFVWLRDNKDPEFLRKFNRSTLEVIPWSFDGAIKHILGTEYSIDELWHEYQVAVGDIQV”, for which the “soluble on expression in E. coli” value is recorded as “soluble”.

As to “MSTYQAATIVAAPNEFRVPFPPFVQISKVQFQREAGSRLLAASGWDGTCRVYEVGKLGDISEKLVFTHGKPLLTCTFAGYNKVAFGGVDHNVKLADIETGNGTQLGSHALAVRCMEFNPMSSLIVSGGWDSSVKLWDARSYGNGAIESVNVSSSVYAMDVLKHTILVGTKDRKIFMYDSRKLREPLQVRDSPLKYQTRAVQFFPTGEAFVVSSIEGRVAVEYVDQSGEEMMKRKYAFKCHREKDTDGTELIHPVHTVAFHPKYGTFATGGADGIVNIWDPFNRKRIIQLHKFETSISSLSFNEDGSQLAIATSYQYEKEIDPSPLPNNSITIRHITDPESRPK”, the “soluble on expression in E. coli” value is recorded as “not soluble”.
